Assay [1] has as its target T1, 小鼠重组RCN3蛋白 (mouse, UniProt Q8BH97 21-328, limits assumed).
T1 construct: Recombinant mouse RCN3 used as coating antigen and in the Western blot; GST and BSA were run as control antigens; also called 小鼠RCN3蛋白; 重组小鼠RCN3蛋白
T1 sequence (looked up): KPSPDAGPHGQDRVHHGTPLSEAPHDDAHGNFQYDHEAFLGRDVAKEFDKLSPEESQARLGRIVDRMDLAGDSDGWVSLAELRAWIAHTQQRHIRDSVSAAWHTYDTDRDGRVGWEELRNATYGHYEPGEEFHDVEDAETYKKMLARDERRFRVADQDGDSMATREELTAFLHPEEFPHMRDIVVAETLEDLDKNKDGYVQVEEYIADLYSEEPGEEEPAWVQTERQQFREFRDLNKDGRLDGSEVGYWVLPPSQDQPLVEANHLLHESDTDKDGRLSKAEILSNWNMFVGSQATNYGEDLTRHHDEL
The assay can be described thus: phage ELISA, plate coated with 3 μg/mL mouse RCN3 (GST and BSA as controls), HRP anti-M13.

For assay [2], the target named is T1, 小鼠重组RCN3蛋白. Put plainly: ELISA, plate coated with 3 μg/mL mouse RCN3 (GST and BSA as controls), ScFv-Fc as first antibody, HRP goat anti-human IgG.

B1: 全人源抗小鼠RCN3蛋白单链ScFv抗体的噬菌体克隆 (scFv)
scFv: ELQMTQSPSSLSASVGDRVTITCQASQDITYHLNWYQQKPGKAPKLLIYDASNLVTGVPSRFSGSGSGTDFTVTISSLQPEDFATYYCQHYYNRPPTFGQGTRLEIKGGSSRSSSSGGGGSGGGGQVQLVQSGGGVVQPGRSLRLSCAASGFTFSSYGMHWVRQAPGKGLEWVAVISYDGSNKYYADSVKGRFTISRDNSKNTLYLQMNSLRAEDTAVYYCARDLGTHAFDIWGQGTMVTVSS
notes: The scFv stood on the surface of M13 phage in the assay; also called 单克隆噬菌体
B1: in assay [1], the binding result was “binds”.

B2: 全人源抗小鼠RCN3带有Fc标签的单链ScFv抗体 (Fc fusion)
scFv: B1 scFv
notes: also called ScFv-Fc抗体; 抗小鼠RCN3蛋白ScFv-Fc抗体; not shown: Fc tag from the eukaryotic expression vector pFUSERTL1
For B2, in assay [2], the binding result is given as “binds”.

For the origin of these results see patent publication CN106749656A (UNIV ZHENGZHOU NORMAL, dated 2017).
